# Laboratory results: patent publication US11994512B2, “Single-cell genomic methods to generate ex vivo cell systems that recapitulate in vivo biology with improved fidelity” (Massachusetts Institute of Technology, priority 2018, dated 2024)
# B1: Q60604 (protein, UniProt Q60604 1-715, looked up)
# chain: MAQELQHPEFARAGQQAGLQVWRVEKLELVPVPQGAYGDFYVGDAYLVLHTTKSSRGFSYRLHFWLGKECSQDESTAAAIFTVQMDDYLGGKPVQSRELQGYESTDFVGYFKGGLKYKAGGVASGLNHVLTNDLTAKRLLHVKGRRVVRATEVPLSWESFNKGDCFIIDLGTEIYQWCGSSCNKYERLKASQVAIGIRDNERKGRSQLIVVEEGSEPSELMKVLGRKPELPDGDNDDDVVADISNRKMAKLYMVSDASGSMKVTLVAEENPFSMGMLLSEECFILDHGAAKQIFVWKGKNANPQERKTAMKTAEEFLQKMKYSTNTQIQVLPEGGETPIFKQFFKDWKDKDQSDGFGKVYITEKVAQIKQIPFDASKLHSSPQMAAQHNMVDDGSGGVEIWRVENSGRVQIDPSSYGEFYGGDCYIILYTYPRGQIIYTWQGANATRDELTMSAFLTVQLDRSLGGQAVQVRVSQGKEPAHLLSLFKDKPLIIYKNGTSKKEGQAPAPPTRLFQVRRNLASITRIVEVDVDANSLNSNDTFVLKLPRNNGFIWIGKGASQEEEKGAEYVADVLKCKASRIQEGKEPEEFWNSLGGRGDYQTSPLLETRAEDHPPRLYGCSNKTGRFIIEEVPGEFTQDDLAEDDVMLLDAWEQIFIWIGKDANEVEKKESVKSAKMYLETDPSGRDKRTPIVIIKQGHEPPTFTGWFLGWDSSRW
# modifications: full-length
# B2: Q60673 (protein, UniProt Q60673 1-979, looked up)
# chain: MRRPRRPGGSGGSGGSGGLRLLVCLLLLSGRPGGCSAISAHGCLFDRRLCSHLEVCIQDGLFGQCQAGVGQARPLLQVTSPVLQRLQGVLRQLMSQGLSWHDDLTQHVISQEMERIPRLRPPEPHPRDRSGLVPRKPGPAGELLTQGNPTGSSPAAQGFPRPAGGRSWGGSPLSSLQAELLPPLLEHLLMPPQPPHPALTYEPALLQPYLFHQFGSRDGSRGSESSSGVVGVGHLSKAEGPALFSRSASKAILGTHSGHSFGDLTGPSPAQLFQDSGLLYMAQELPVPGRARAPRLPENGGNRAEDSSEGHEEEVLGGRGEKSPPQAAQPELSLQRLTAVLAGYGVELRQLTPEQFSTLLTLLQLLPKGTGRNLEGAVNVGGADVKKTIQQMQRGDPAEALPPTPSLPGYLTASPASSEVQQVLSPGFPEPPHTPSPLGSSSVLLEKKSPLGQSQPTVVGRPSARPSAEEYGYIVTDQKPLSLVAGVRLLEILAEHVHMSSGSFINISVVGPAVTFRIRHNEQNLSLADVTQQAGLVKSELEAQTGLQILQTGVGQREEAAEVLPRQAHGISPMRSVLLTLVALAGVAGLLVALAVALCMRHHSRQRDKERLAALGPEGAHGDTTFEYQDLCRQHMATKSLFNRAEGQPEPSRVSSVSSQFSDAAQASPSSHSSTPSWCEEPAQANMDISTGHMILAYMEDHLRNRDRLAKEWQALCAYQAEPNTCAAAQDESNIKKNRHPDFLPYDHARIKLKVESSPSRSDYINASPIIEHDPRMPAYIATQGPLSHTIADFWQMVWESGCTVIVMLTPLVEDGVKQCDRYWPDEGSSLYHVYEVNLVSEHIWCEDFLVRSFYLKNLQTQETRTLTQFHFLSWPAEGTPASTRPLLDFRRKVNKCYRGRSCPIIVHCSDGAGRTGTYILIDMVLNRMAKGVKEIDIAATLEHVRDQRPGLVRSKDQFEFALTAVAEEVNAILKALPQ
# modifications: full-length
# B3: Q5HZI2 (protein, UniProt Q5HZI2 1-419, looked up)
# chain: MRKTNMWFLERLRGSGENGASRGEAGDKSSKGPLYSNVLTPDKIPDFFIPPKLPSGPTEAEGQADLGPSTSEQNLASPGPRRAPRSPRLPAKLASESRSLLKAATRHVIQIESAEDWTAEEATNADPQAQGAMSLPSVPKAQTSYGFATLAESPHTRRKESLFHSEHGALAQVGSPGAGRRRAGAKGNGGDGGSREVGGALMSPSRYFSGGESDTGSSAESSPFGSPLLSRSVSLLKGFAQDSQAKVSQLKQSVGRHGSLSADDSTPDTSPGVRRRLSRRATPEPGPESGQAPRGEHTVKMGTRGSVRLLAEYEAAQARLRVRLLAAEGLYDRPCDARSINCCVGLCLVPGKLQKQRSTIIKNSRHPIFNEDFFFDGLGPASVRKLALRIKVVNKGSSLKRDTLLGEEELPLTSLLPFL
# modifications: full-length
# B4: Q5DQR4 (protein, UniProt Q5DQR4 1-1185, looked up)
# chain: MKKFNFRKVLDGLTASSPGSGSSSGSNSGGAGSGSVHPGGTAGLPREEIQESLTSDYFQICKTVRHGFPYQPTALAFDPVQKILAIGTRTGAIRILGRPGVDCYCQHESGAAVLQLQFLINEGALVSASSDDTLHLWNLRQKRPAILHSLKFNRERITYCHLPFQSKWLYVGTERGNTHIVNIESFILSGYVIMWNKAIELSTKTHPGPVVHLSDSPRDEGKLLIGYENGTVVFWDLKSKRAELRVYYDEAIHSIDWHHEGKQFMCSHSDGSLTLWNLKSPSRPFQTTVPHGKSQREGRKSESCKPILKVEYKTCRNSEPFIIFSGGLSYDKACRRPSLTIMHGKAITVLEMDHPIVEFLTLCETPYPNEFQEPYAVAVLLEKDLIVVDLTQTNFPIFENPYPMDIHESPVTCTAYFADCPPDLILVLYSIGVKHKKQGYSNKEWPVSGGAWNLGAQTYPEIIITGHADGTIKFWDASAMTLQMLYKLKTSKVFEKQKAGEGKQTCELVEEDPFAVQMIYWCPESRIFCVSGVSAYVIIYKFSRHEVTTEIVSLEVRLQCDVEDIITPEPETSPPFPDLSSQLPPSRSLSGSTNTVSSEGVTKDSIPCLSVKTRPVRMPPGYQADLVIQLVWVDGEPPQQITSLSISSAYGIVAFGNCTGLVVVDFIQKTVLLSMGTIDLYRSSDLYQRQPRSPRKNRQFIADNFCMRGLSNFYPDLTKRIRTSYQSLTELNDSPVPLELERCKSPTSDHVNGHCTSPTSQSCSSGKRLSSADVSKVNRWGPGRPPFRKAQSAACMEISLPVTTEETRENSYNRSRSSSISSIDKDSKEAITALYFMESFARKNDSTVSPCLFVGTSLGMVVLISLNLPSSDEQRFTEPVVVLPSGTFLSLKGAVLTFSCMDRTGSLMQPPYEVWRDPNNTDENEKTWKRKLVMNYSSSSQEMGDHQYTIICSEKQAKVFSLPSQTCLYVHNITETSFILQADVVVMCNSACLACFCANGHIMIMSLPSLRPMLDVNYLPLTDMRIARTFCFTNEGQALYLVSPTEIQRLTYSQEMCDNIQDMLGDLFTPIETPEAQNRGFLKGLFGGSGQTFDREELFGEASAGKASRSLAQHIPGPGSIEGMKGAAGGVMGELTRARIALDERGQRLGELEEKTAGMMTSAEAFSKHAHELMLKYKDKKWYQF
# modifications: full-length
# B5: Q52KI8 (protein, UniProt Q52KI8 1-946, looked up)
# chain: MDAGFFRGTSAEQDNRFSNKQKKLLKQLKFAECLEKKVDMSKVNLEVIKPWITKRVTEILGFEDDVVIEFIFNQLEVKNPDSKMMQINLTGFLNGKNAREFMGELWPLLLSAQENIAGIPSAFLELKKEEIKQRQIEQEKLASLKKQDEDKDKRDKEEKESSREKRERSRSPRRRKSRSPSPRRRSSPVRRERKRSHSRSPRHRTKSRSPSPAPEKKEKSPELPEPSVRMKDSSVQEATSTSDILKAPKPEPVPEPKEPSPEKNSKKEKEKTRPRSRSRSKSRSRTRSRSPSHTRPRRRHRSRSRSYSPRRRPSPRRRPSPRRRTPPRRMPPPPRHRRSRSPGRRRRRSSASLSGSSSSSSSSRSRSPPKKPPKRTSSPPRKTRRLSPSASPPRRRHRPSSPATPPPKTRHSPTPQQSNRTRKSRVSVSPGRTSGKVTKHKGTEKRESPSPAPKPRKVELSESEEDKGSKMAAADSVQQRRQYRRQNQQSSSDSGSSSTSEDERPKRSHVKNGEVGRRRRHSPSRSASPSPRKRQKETSPRMQMGKRWQSPVTKSSRRRRSPSPPPARRRRSPSPAPPPPPPPPPPRRRRSPTPPPRRRTPSPPPRRRSPSPRRYSPPIQRRYSPSPPPKRRTASPPPPPKRRASPSPPPKRRVSHSPPPKQRSPTVTKRRSPSLSSKHRKGSSPGRSTREARSPQPNKRHSPSPRPRAPQTSSPPPVRRGASASPQGRQSPSPSTRPIRRVSRTPEPKKIKKTAMATQRNIRRVSKSPKADSLSRAASPSPQSVRRVSSSRSVSGSPEPAAKKPPAPPSPVQSQSPSTNWSPAVPAKKAKSPTPSLSPARNSDQEGGGKKKKKKKDKKHKKDKKHKKHKKHKKEKAVTIATPATAAPAAVSAATTTSAQEEPAAAPEPRKETESEAEDDNLDDLERHLREKALRSMRKAQVSPQS
# modifications: full-length
# B6: Q571E4 (protein, UniProt Q571E4 1-520, looked up)
# chain: MAACTAAQQLLLVLSALGLLAAGAPQPPNIVLLLMDDMGWGDLGVNGEPSRETPNLDRMAAEGMLFPSFYSANPLCSPSRAALLTGRLPIRNGFYTTNAHARNAYTPQEIMGGIPNSEHLLPELLKKAGYTNKIVGKWHLGHRPQFHPLKHGFDEWFGSPNCHFGPYDNKAKPNIPVYRDWEMVGRFYEEFPINRKTGEANLTQLYTQEALDFIQTQHARQSPFFLYWAIDATHAPVYASRQFLGTSLRGRYGDAVREIDDSVGKILSLLQNLGISKNTFVFFTSDNGAALISAPNEGGSNGPFLCGKQTTFEGGMREPAIAWWPGHIAAGQVSHQLGSIMDLFTTSLSLAGLKPPSDRVIDGLDLLPTMLKGQMMDRPIFYYRGNTLMAVTLGQYKAHLWTWTNSWEEFTQGTDFCPGQNVSGVTTHTQEEHTELPLIFHLGRDPGERFPLSFHSDEYQDALSRTTQVVQEHQKSLVPGQPQLNVCNQAVMNWAPPGCEKLGKCLTPPESVPEKCFWAH
# modifications: full-length
# Tested on: intracellular proteome of ENR+CD and ENR organoids
# Test: LC-MS/MS TMT proteomics of ENR+CD versus ENR organoids
# Assay type: cell-based, C57BL/6 mice
# Conditions: for Average logFC: ENR+CD versus ENR organoids, sample pairs in aggregate (n=4, 2 technical replicates from two biological donors); for M1-1 Log2 Median Normalized / M1-2 Log2 Median Normalized / M2-1 Log2 Median Normalized / M2-2 Log2 Median Normalized: protein abundance ratio ENR+CD versus ENR organoids, LC-MS/MS TMT proteomics; for M1-1 Log2 Median Normalized: sample pair M1-1; for M1-2 Log2 Median Normalized: sample pair M1-2; for M2-1 Log2 Median Normalized: sample pair M2-1; for M2-2 Log2 Median Normalized: sample pair M2-2; for change: up = enriched in ENR+CD, down = enriched in ENR, FDR<0.05 and log fold change cut-off
Molecule,Average logFC,M1-1 Log2 Median Normalized,M1-2 Log2 Median Normalized,M2-1 Log2 Median Normalized,M2-2 Log2 Median Normalized,change
B1,−1.3,−1.236,−2.062,−1.8295,−0.073,down
B2,1.189,1.189,1.249,0.8005,1.265,up
B3,1.158,0.822,0.518,1.5305,1.762,up
B4,1.147,1.316,0.966,1.1715,1.133,up
B5,−1.144,−1.036,−0.819,−1.2825,−1.437,down
B6,1.207,1.473,0.565,1.3465,1.206,up
